Here are results for 1 molecule from patent US6375944B1, “Methods and compositions for enhancing the immunostimulatory effect of interleukin-12” (The Wistar Institute of Anatomy and Biology, priority 1998, dated 2002).

For series [1], the system named is SCK cells. The conditions noted are these: cited from earlier work.
Series [2] concerns SCK cells. The conditions noted are these: A/J mice with established SCK immunity; given just prior to tumor cell rechallenge; cited from earlier work.
Another series deals with allogeneic DTH responses. The series is described as follows: Delayed type hypersensitivity (DTH) assessment, footpad swelling after alloimmunization with HKB cells. In kind it is in vivo, mice. As to the method:
A. C57BL/6 (H-2^b) mice were vaccinated with irradiated allogeneic HKB (H-2^a) cells suspended in PBS at 10^7 trypan blue-excluding cells/ml. Cells were irradiated with 6000 rads from a ^137Cs source, and mice were vaccinated with 10^6 cells s.c. (day 0). Mice were given rmIL-12 (Genetics Institute, Andover, Mass.) by intraperitoneal injection (ip) with 500 ng/day on days 0-4 and 7-11 (10 injections). Control mice received phosphate buffered saline (PBS) injections. The vaccinated mice received 1 mg of neutralizing anti-IFNγ (XMG6) and/or anti-TNFα (XT22) monoclonal antibodies (mAbs) on days −1, 3 and 7. Mice were subsequently assayed for delayed type hypersensitivity (DTH) and for mitogen and alloantigen stimulation of splenocytes as described below.
The DTH assessment was performed as follows: For assessment of allogeneic DTH responses, mice were injected with 50 μl PBS containing 10^6 irradiated SCK cells in the right footpad and with 50 μl PBS in the left footpad. Footpad thickness measurements were taken just before injection and 24 hours later using a Starrett pocket gauge (Athol, Mass.). Data are presented as the difference in footpad swelling induced by SCK cells and by PBS.
C57BL/6 mice genetically deficient for IFNγ (IFNγ^−/−) and wild-type C57BL/6 mice were vaccinated with 10^6 irradiated HKB cells and given 500 ng rmIL-12 or phosphate buffered saline (PBS) on days 0-4 and 7-11 or left unvaccinated. They were challenged with 10^6 irradiated SCK cells in the right foot, with PBS control injection in the left foot on day 12. The DTH responses were measured as described above in Part A.
C. To examine the role of TNFα, SV129×C57BL/6 mice deficient for both p55 and p75 TNF receptors (TNFR^−/− mice) and control mice were vaccinated with 10^6 irradiated HKB cells and given 500 ng IL-12 or PBS on days 0-4 and 7-11. DTH assessment was performed on day 12, as described above in Part A.
Footpad injections for DTH assessment were performed on day 12 as described above in the DTH assay. Swelling 24 hours later is presented as the mean (+S.E.) from 3 mice in each treatment group in FIG. 4A.

Series [3] in a line: Splenomegaly after a course of rmIL-12. In kind it is in vivo. The conditions noted are these: iNOS−/− mice, like wild-type mice.
The subject of a further series is splenocytes. The series is described as follows: Mitogen and alloantigen stimulation of splenocytes (3H-thymidine incorporation), whole or adherent/nonadherent cocultures. Type of series: cell-based, mice. The conditions noted are these: for proliferative responses to Con A, IL-12 and allogeneic stimulation: data not shown. Here is the method: The mitogen and alloantigen stimulation of splenocytes assay was performed as follows: In vitro mitogenic stimulation of splenocytes with […] Con A or 100 U/ml rmIL-12 was performed as described [Kurzawa, cited above]. Proliferative responses to allogeneic antigens (mixed lymphocyte reaction, MLR) was measured when splenocytes from the mice were stimulated with 10^5 mitomycin treated A/J splenocytes. Splenocyte fractionation was performed by allowing 10^5 splenocytes to adhere for 90 minutes in 96 well plates, after which the nonadherent cells were removed and cocultured with adherent cells from different wells for assay. When added, antibodies (XMG6 for IFNγ, XT22 for TNFα, AE5 for IL-10 and C17.8 for IL-12 ) were used at […] final concentration. After 72 hours exposure to mitogen, cultures were pulsed with 1 μCi^3H-thymidine for 16 hours, cells were harvested and ^3H incorporation was measured by scintillation counting. Supernatants from cultures assayed for IFNγ by radioimmunoassay (RIA) (using antibodies AN18 and XMG6 [Wysocka, M. et al. 1995 Eur. J. Immunol. 25:672] were harvested 24 or 72 hours after stimulation.
A. Splenocytes from rmIL-12- and PBS-treated C57BL/6 mice were fractioned by adherence to 96 well plastic plates for 90 minutes. The cells were reconstituted in various combinations of adherent and nonadherent cells by overlaying nonadherent cells on the adherent cells. These cocultures were then stimulated with either 2.5 μg/ml Con A, 100 U/ml IL-12, or 10^5 mitomycin C treated A/J (H-2A) splenocytes, as described in the mitogen/alloantigen assay of Example 1.
B. Cocultures were established from splenic adherent and nonadherent cells of PBS-treated mice or from the adherent cells of rmIL-12-treated mice and nonadherent cells of PBS-treated mice. Antibodies XMG6 (to IFNγ), XT22 (to TNFα), AE5 (to IL-10) and C17.8 (to IL-12 ) were added to a final concentration of […] in cocultures containing adherent cells from spleen of rmIL-12-treated mice, also according to the assay described in Example 1.
Cocultures were established from splenic adherent and nonadherent cells of PBS-treated mice or from the adherent cells of rmIL-12-treated mice and nonadherent cells of PBS-treated mice. Antibodies XMG6 (to IFNγ), XT22 (to TNFα), AE5 (to IL-10) and C17.8 (to IL-12) were added to a final concentration of […] in cocultures containing adherent cells from spleen of rmIL-12-treated mice. An inhibitor of inducible nitric oxide synthase (iNOS), L-NMMA (Sigma), was added to cocultures of adherent cells from rmIL-12 treated mice and nonadherent cells from control mice at a final concentration of […]. Alternatively, D-NMMA (Sigma), a noninhibitory isoform of L-NMMA, was added to other cocultures as a control.
Background: Incorporation of labelled thymidine or its analogues reports DNA synthesis.

The subject of series [4] is SCK cells. The conditions noted are these: cited from earlier work. This is another data set of the same source.
For series [5], the system named is SCK cells. Put plainly: Irradiated wild-type SCK cell vaccination followed by SCK tumor cell challenge. The conditions noted are these: SCK-vaccinated mice; at 28 days; rmIL-12 alone, or L-NAME/D-NAME given with rmIL-12. In kind it is in vivo, A/J mice. An excerpt:
Female A/J mice (8 mice per group) were vaccinated with 10^6 irradiated SCK cells and received either PBS, rmIL-12, rmIL-12+L-NAME or rmIL-12 and D-NAME on days 0-4 and 7-11. Mice were challenged fourteen days after vaccination with 2.5×10^4 SCK cells in the opposite flank. Tumorigenesis was scored daily, as described above.

Where two headings read alike, the source gives them in different places.

B1: rmIL-12: recombinant murine Interleukin-12, heterodimeric cytokine, from Genetics Institute (protein, UniProt P43431 23-215; P43432 23-335, looked up)
Interleukin-12 subunit alpha: RVIPVSGPARCLSQSRNLLKTTDDMVKTAREKLKHYSCTAEDIDHEDITRDQTSTLKTCLPLELHKNESCLATRETSSTTRGSCLPPQKTSLMMTLCLGSIYEDLKMYQTEFQAINAALQNHNHQQIILDKGMLVAIDELMQSLNHNGETLRQKPPVGEADPYRVKMKLCILLHAFSTRVVTINRVMGYLSSA
Interleukin-12 subunit beta: MWELEKDVYVVEVDWTPDAPGETVNLTCDTPEEDDITWTSDQRHGVIGSGKTLTITVKEFLDAGQYTCHKGGETLSHSHLLLHKKENGIWSTEILKNFKNKTFLKCEAPNYSGRFTCSWLVQRNMDLKFNIKSSSSSPDSRAVTCGMASLSAEKVTLDQRDYEKYSVSCQEDVTCPTAEETLPIELALEARQQNKYENYSTSFFIRDIIKPDPPKNLQMKPLKNSQVEVSWEYPDSWSTPHSYFSLKFFVRIQRKKEKMKETEEGCNQKGAFLVEKTSTEVQCKGGNVCVQAQDRYYNSSCSKWACVPCRVRS
Turning to B1, the “Effect on SCK.GM vaccine protection” value with SCK cells [1] (four weeks after vaccination) is “had no deleterious effect”; in the series on SCK cells [1] (two weeks after vaccination), “abrogated protection”. For the same molecule, the “Effect on tumor protection” value with SCK cells [2] is on record as “impairs tumor protection”. Also, the DTH responses entry in the series on allogeneic DTH responses (IFNγR1−/− C57BL/6×SV129 mice and controls vaccinated with HKB cells, data not shown) is “suppressed DTH responses in control but not IFNγR1^−/− mice”; in the series with allogeneic DTH responses (IFNγ−/− C57BL/6 mice vaccinated with HKB cells, rmIL-12 500 ng days 0-4 and 7-11), “had no suppressive effect”; in the series with allogeneic DTH responses (TNFR−/− (p55 and p75) SV129×C57BL/6 mice vaccinated with HKB cells, 500 ng days 0-4 and 7-11), “depressed DTH responses like wild-type”; in the series on allogeneic DTH responses (iNOS−/− C57BL/6 mice vaccinated with HKB cells, course of rmIL-12), “at least as great as those of PBS-treated iNOS^−/− and wild-type mice”; in the series with allogeneic DTH responses (wild-type C57BL/6 mice vaccinated with irradiated HKB cells, rmIL-12 500 ng/day ip days 0-4 and 7-11, challenge day 12), “suppressed DTH responses to background levels”. Further, the splenomegaly entry in series [3] is recorded as “induced splenomegaly”. The mitogenic responses entry is listed as “suppressed mitogenic responses” in the series with splenocytes (cultures of adherent and nonadherent splenocytes both from rmIL-12 treated mice, vs. PBS-treated); “normal mitogenic responses” in the series with splenocytes (nonadherent cells from rmIL-12 treated mice cocultured with adherent cells from PBS-treated mice). In addition, in the series with splenocytes (nonadherent cells from control mice mixed with adherent cells from rmIL-12 treated mice), the “proliferative responses (Con A, IL-12 or alloantigen)” value is listed as “severely impaired”. The “in vitro mitogenic and alloproliferative responses” value in the series with splenocytes (splenocytes from rmIL-12-treated HKB-vaccinated C57BL/6 mice) was “suppressed”. Moreover, the “proliferative responses to Con A, IL-12 and allogeneic stimulation” value with splenocytes (splenocytes from rmIL-12-treated TNFR−/− mice) is given as “suppressed”; in the series with splenocytes (splenocytes from rmIL-12 treated IFNγ−/− mice) it was “normal proliferative responses”. For the same molecule, the “proliferative responses after stimulation with mitogens or alloantigens” value in the series on splenocytes (splenocytes from rmIL-12-treated iNOS−/− mice) is “proliferative responses like those of splenocytes from control mice”. Besides, the figures for the “Effect on protection by irradiated SCK cell vaccination” value in the series on SCK cells [4] (challenged 14 days after vaccination) and in the series with SCK cells [4] (challenged at 28 days) were “did not improve protection” and “did improve protection”, respectively. The molecule also had a level of protection with SCK cells [5] of 75%.
